Reference: US20240409620A1 (published 2024)
Where a chain is given by its changes, count along the chain named. Numbers in names are those of the source. Read-outs that look alike come from different tables or passages of the source.

Columns and labels:
[1] = biological target: T1, RSV/A/A2 pre-fusion F protein (respiratory syncytial virus RSV/A/A2, UniProt P03420 26-109); assay: BLI
[2] = biological target: T2, RSV/B/B9320 pre-fusion F protein (respiratory syncytial virus RSV/B/B9320); assay: BLI
[3] = biological target: T2, RSV/B/B9320 pre-fusion F protein; assay: ELISA
[4] = biological target: T1, RSV/A/A2 pre-fusion F protein; assay: ELISA
[5] = biological target: T1, RSV/A/A2 pre-fusion F protein; assay: BLI; remark: listed apart in the source

B1: MEDI8897 (antibody, V domains shown)
VH: QVQLVQSGAEVKKPGSSVMVSCQASGGLLEDYIINWVRQAPGQGPEWMGGIIPVLGTVHYGPKFQGRVTITADESTDTAYMELSSLRSEDTAMYYCATETALVVSETYLPHYFDNWGQGTLVTVSS
VL: DIQMTQSPSSLSAAVGDRVTITCQASQDIVNYLNWYQQKPGKAPKLLIYVASNLETGVPSRFSGSGSGTDFSLTISSLQPEDVATYYCQQYDNLPLTFGGGTKVEIK
**Q.** With B1 as the binder, how does the Kd [1] read?
**A.** 0.0172 nM

**Q.** What about the Kd [2] of the same binder?
**A.** 0.66 nM

B2: Palivizumab (SYNAGIS) (antibody, V domains shown)
VH: QVTLRESGPALVKPTQTLTLTCTFSGFSLSTSGMSVGWIRQPPGKALEWLADIWWDDKKDYNPSLKSRLTISKDTSKNQVVLKVTNMDPADTATYYCARSMITNWYFDVWGAGTTVTVSS
VL: DIQMTQSPSTLSASVGDRVTITCKCQLSVGYMHWYQQKPGKAPKLLIYDTSKLASGVPSRFSGSGSGTEFTLTISSLQPDDFATYYCFQGSGYPFTFGGGTKLEIK
**Q.** What does the source list for B2?
**A.** Kd [1]: 0.0407 nM; Kd [2]: 0.362 nM

B3: 4F1En1 (VH-S75R) (antibody, V domains shown)
VH: QVQLVESGGGVVQPGRSLRLSCAASGFSFYSYSVHWVRQAPGKGLEWVADVVYDGNHQHYTDSVKGRFTISRDTRKNTVYLQMGSLRAEDTALYYCTARSLVITLAGAGRDDYWGQGTTVTVSS
VL: DIVMTQSPLSLPVTPGEPASISCRSSQSLLHSNGYTYLDWYLQKPGQSPQLLIFLGSSRASGVPDRFSGSGSGTDFTLKISRVEAEDVGVYYCVQDLQTSLTFGGGTKLEIKR
**Q.** How did the EC50 [3] turn out when B3 was run?
**A.** 0.0565 µg/mL

**Q.** What about the Kd [2] of the same binder?
**A.** 0.0018 nM

**Q.** And the EC50 [4]?
**A.** 0.0245 µg/mL

**Q.** What about the Kd [5] of the same binder?
**A.** < 0.001 nM

B4: 4F1 germline reversion (antibody, V domains shown)
VH: B3 VH with R75S
VL: B3 VL
**Q.** Which EC50 [3] does the source give for B4 here?
**A.** 0.0781 µg/mL

**Q.** What about the EC50 [4] of the same binder?
**A.** 0.0536 µg/mL

B5: fully human monoclonal antibody 4F1 wild type (antibody, V domains shown)
VH: B3 VH with Q1E, E6Q, Q13R, D62E, K65R, T69S, R75S, K76T, A88P, T119R
VL: DIVMTQSPLSLSVTPGEPASISCKSSQSLLHSNGYTYLDWYLQKPGKSPQLLIFLGSSRASGVPARFSGSGSGTDFTLEISRVEAEDVGVYYCVQDLQTSLTFGGGTKVDIK
**Q.** How did the EC50 [3] turn out when B5 was run?
**A.** 0.111 µg/mL

**Q.** And the Kd [2]?
**A.** 0.0684 nM
